One block for each binder: values may come before it. No end group written: not given here. fluorescein = N-terminal fluorescein label
B1: integrin β4 1436-1666 (β4-CS-FnIII-3,4) (domain or fragment, human, UniProt P16144-2 1436-1666, looked up)
chain: LPRDYSTLTSVSSHDSRLTAGVPDTPTRLVFSALGPTSLRVSWQEPRCERPLQGYSVEYQLLNGGELHRLNIPNPAQTSVVVEDLLPNHSYVFRVRAQSQEGWGREREGVITIESQVHPQSPLCPLPGSAFTLSTPSAPGPLVFTALSPDSLQLSWERPRRPNGDIVGYLVTCEMAQGGGPATAFRVDGDSPESRLTVPGLSENVPYKFKVQARTTEGFGPEREGIITIES
B2: fluorescein-labeled BP230 peptide 26-55 (peptide, UniProt Q03001-8 26-55, looked up)
peptide: fluorescein-DSNENLLLVHCGPTLINSCISFGSESFDGH
modifications: cysteine pairing not given here

Tests used:
[1] = molecular target: T1, BP230 41-162 (human, UniProt Q03001-8 41-162, Oregon Green 488 on thiol groups); experiment: fluorescence polarisation
T1 sequence (looked up): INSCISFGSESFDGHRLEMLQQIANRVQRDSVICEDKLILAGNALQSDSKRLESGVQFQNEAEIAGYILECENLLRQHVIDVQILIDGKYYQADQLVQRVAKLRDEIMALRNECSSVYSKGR

[2] = molecular target: T2, BP230 10-162 T39D (human, UniProt Q03001-8 10-162, T39D, Oregon Green 488 on thiol groups); experiment: fluorescence polarisation
T2 sequence (looked up): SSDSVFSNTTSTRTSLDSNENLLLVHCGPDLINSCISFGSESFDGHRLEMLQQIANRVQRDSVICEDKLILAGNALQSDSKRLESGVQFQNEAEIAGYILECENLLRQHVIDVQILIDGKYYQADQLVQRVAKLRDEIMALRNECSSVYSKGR

[3] = molecular target: T3, fluorescein-labeled BP230 peptide 37-55 (human, UniProt Q03001-8 37-55); experiment: fluorescence polarisation
T3 peptide (looked up): fluorescein-GPTLINSCISFGSESFDGH

[4] = molecular target: fluorescein-labeled BP230 peptide 26-47 (human) (UniProt Q03001); experiment: fluorescence polarisation
[5] = molecular target: T4, β4-CS-FnIII-3,4 (1436-1666) T1663R (human, UniProt P16144-2 1436-1666, T1663R); experiment: fluorescence polarisation
T4 sequence (looked up): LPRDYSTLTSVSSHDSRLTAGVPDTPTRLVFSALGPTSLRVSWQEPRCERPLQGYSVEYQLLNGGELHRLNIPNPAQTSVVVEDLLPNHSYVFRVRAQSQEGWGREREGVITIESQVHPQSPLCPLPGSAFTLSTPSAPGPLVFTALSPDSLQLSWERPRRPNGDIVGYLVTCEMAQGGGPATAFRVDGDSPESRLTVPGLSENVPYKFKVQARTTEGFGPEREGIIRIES

[6] = molecular target: B2; experiment: fluorescence polarisation
[7] = molecular target: B1; experiment: fluorescence polarisation
[8] = molecular target: T5, β4-FnIII-3,4 (1457-1666) mutant T1663R (human, UniProt P16144-2 1457-1666, T1663R); experiment: crystal structure
T5 sequence (looked up): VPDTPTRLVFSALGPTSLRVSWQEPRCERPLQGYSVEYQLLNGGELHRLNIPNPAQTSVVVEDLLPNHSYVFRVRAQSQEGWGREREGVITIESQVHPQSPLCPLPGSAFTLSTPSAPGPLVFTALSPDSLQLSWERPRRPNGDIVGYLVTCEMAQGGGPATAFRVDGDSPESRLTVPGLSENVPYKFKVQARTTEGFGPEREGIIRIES

Binder: B1
- fold increase in Kd against the longer BP230 constructs [1]: 5 fold
- fold increase in Kd against WT BP230 10-162 [2]: ~3 fold
- fold increase in Kd against the BP230 26-55 peptide [3]: 3 fold
- fold increase in Kd against the BP230 26-55 peptide [4]: 5 fold

Binder: B2
- binding result [5]: binds

B4: BP230 10-162 S46A (domain or fragment, human, UniProt Q03001-8 10-162, looked up)
chain: SSDSVFSNTTSTRTSLDSNENLLLVHCGPTLINSCIAFGSESFDGHRLEMLQQIANRVQRDSVICEDKLILAGNALQSDSKRLESGVQFQNEAEIAGYILECENLLRQHVIDVQILIDGKYYQADQLVQRVAKLRDEIMALRNECSSVYSKGR
modifications: Oregon Green 488 on thiol groups
- binding result [7]: binds

Second part, the binder after the results:

- fold reduction in Kd against WT β4 [6]: ~8 fold
B3: β4-CS-FnIII-3,4 (1436-1666) I1661R/T1663R (domain or fragment, human, UniProt P16144-2 1436-1666, looked up)
chain: LPRDYSTLTSVSSHDSRLTAGVPDTPTRLVFSALGPTSLRVSWQEPRCERPLQGYSVEYQLLNGGELHRLNIPNPAQTSVVVEDLLPNHSYVFRVRAQSQEGWGREREGVITIESQVHPQSPLCPLPGSAFTLSTPSAPGPLVFTALSPDSLQLSWERPRRPNGDIVGYLVTCEMAQGGGPATAFRVDGDSPESRLTVPGLSENVPYKFKVQARTTEGFGPEREGRIRIES

- fold increase in Kd against WT β4 [6]: > 2 fold
B5: β4-CS-FnIII-3,4 (1436-1666) P1576R (domain or fragment, human, UniProt P16144-2 1436-1666, looked up)
chain: LPRDYSTLTSVSSHDSRLTAGVPDTPTRLVFSALGPTSLRVSWQEPRCERPLQGYSVEYQLLNGGELHRLNIPNPAQTSVVVEDLLPNHSYVFRVRAQSQEGWGREREGVITIESQVHPQSPLCPLPGSAFTLSTPSAPGRLVFTALSPDSLQLSWERPRRPNGDIVGYLVTCEMAQGGGPATAFRVDGDSPESRLTVPGLSENVPYKFKVQARTTEGFGPEREGIITIES

- binding result [8]: binds
B6: unlabeled BP230 peptide 26-55 (peptide, UniProt Q03001-8 26-55, looked up)
peptide: DSNENLLLVHCGPTLINSCISFGSESFDGH
